Laboratory results taken from US20250002588A1 (DIAGONAL THERAPEUTICS, published 2025).
Read-outs that look alike come from different tables or passages of the source.

B1: DGL893 (bispecific antibody)
chain 1: not shown
chain 2: EVQLLESGGGLVQPGGSLRLSCAASGFTFSDYYMTWIRQAPGKGLEWVSSISGGSTYYADSRKGRFTISRDNSENTLYLQMNSLRAEDTAVYYCARDFGVSGWFGQYGMDVWGQGTLVTVSSGGGGSGGGGSGGGGSQSVLTQPPSASGTPGQRVTISCTGSSSNIGAGYDVHWYQQLPGTAPKLLIYRSNQRPSGVPDRFSGSKSGTSASLAISGLRSEDEADYYCSSYAGNYNLVFGGGTKLTVLDKTHTCPPCPAPEAAGAPSVFLFPPKPKDTLMISRTPEVTCVVVDVSHEDPEVKFNWYVDGVEVHNAKTKPREEQYNSTYRVVSVLTVLHQDWLNGKEYKCKVSNKALPAPIEKTISKAKGQPREPQVCTLPPSRDELTKNQVSLSCAVKGFYPSDIAVEWESNGQPENNYKTTPPVLDSDGSFFLVSKLTVDKSRWQQGNVFSCSVMHEALHNHYTQKSLSLSPGWSHPQFEK
B2: DGL894 (bispecific antibody)
chain 1: not shown
chain 2: EVQLLESGGGLVQPGGSLRLSCAASGFTFSDYWMTWIRQAPGKGLEWVSSISGGSTYYADSRKGRFTISRDNSENTLYLQMNSLRAEDTAVYYCARDFGVAGWFGQYGMDVWGQGTLVTVSSGGGGSGGGGSGGGGSQSVLTQPPSASGTPGQRVTISCTGSSSNIGAGYDVHWYQQLPGTAPKLLIYRSNQRPSGVPDRFSGSKSGTSASLAISGLRSEDEADYYCSSYAGNYNLVFGGGTKLTVLDKTHTCPPCPAPEAAGAPSVFLFPPKPKDTLMISRTPEVTCVVVDVSHEDPEVKFNWYVDGVEVHNAKTKPREEQYNSTYRVVSVLTVLHQDWLNGKEYKCKVSNKALPAPIEKTISKAKGQPREPQVCTLPPSRDELTKNQVSLSCAVKGFYPSDIAVEWESNGQPENNYKTTPPVLDSDGSFFLVSKLTVDKSRWQQGNVFSCSVMHEALHNHYTQKSLSLSPGWSHPQFEK
B3: DGL895 (bispecific antibody)
chain 1: not shown
chain 2: EVQLLESGGGLVQPGGSLRLSCAASGFTFSDYYMTWIRQAPGKGLEWVSSISGGTTYYADSRKGRFTISRDNSENTLYLQMNSLRAEDTAVYYCARDFGVAGWFGQYGMDVWGQGTLVTVSSGGGGSGGGGSGGGGSQSVLTQPPSASGTPGQRVTISCTGSSSNIGAGYDVHWYQQLPGTAPKLLIYRSNQRPSGVPDRFSGSKSGTSASLAISGLRSEDEADYYCSSYAGNYNLVFGGGTKLTVLDKTHTCPPCPAPEAAGAPSVFLFPPKPKDTLMISRTPEVTCVVVDVSHEDPEVKFNWYVDGVEVHNAKTKPREEQYNSTYRVVSVLTVLHQDWLNGKEYKCKVSNKALPAPIEKTISKAKGQPREPQVCTLPPSRDELTKNQVSLSCAVKGFYPSDIAVEWESNGQPENNYKTTPPVLDSDGSFFLVSKLTVDKSRWQQGNVFSCSVMHEALHNHYTQKSLSLSPGWSHPQFEK
B4: PRO006 (bispecific antibody)
chain: EVQLLESGGGLVQPGGSLRLSCAASGFTFSDYYMTWIRQAPGKGLEWVSSISGGSTYYADSRKGRFTISRDNSENTLYLQMNSLRAEDTAVYYCARDFGVAGWFGQYGMDVWGQGTLVTVSSGGGGSGGGGSGGGGSQSVLTQPPSASGTPGQRVTISCTGSSSNIGAGYDVHWYQQLPGTAPKLLIYRSNQRPSGVPDRFSGSKSGTSASLAISGLRSEDEADYYCSSYAGNYNLVFGGGTKLTVLDKTHTCPPCPAPEAAGAPSVFLFPPKPKDTLMISRTPEVTCVVVDVSHEDPEVKFNWYVDGVEVHNAKTKPREEQYNSTYRVVSVLTVLHQDWLNGKEYKCKVSNKALPAPIEKTISKAKGQPREPQVYTLPPSRDELTKNQVSLTCLVKGFYPSDIAVEWESNGQPENNYKTTPPVLDSDGSFFLYSKLTVDKSRWQQGNVFSCSVMHEALHNHYTQKSLSLSPGGGGGSGGGGSEVQLLESGGGLVQPGGSLRLSCAASGFTFSSYAMSWVRQAPGKGLEWVANINQDGSEKNYVDSMRGRFTISRDNSKNTLYLQMNSLRAEDTAVYYCAREFDYWGQGTLVTVTSSGGGGSGGGGSGGGGSQSVLAQPPSASGTPGQRVTISCSGSSSNIGSNYVYWYQQLPGTAPKLLIYGNNKRPSGVPDRFSGSKSGTSASLAISGLRSEDEADYYCAAWDDSLNGRVFGGGTKLTVL

How the values were obtained:
[1] = target: T1, ALK-1/BMPR-2 receptor pair of the PathHunter U2Os dimerization cells (DiscoverX 93-0962C3) (UniProt P37023 22-503; Q13873 27-1038); experiment: cell-based or functional assay
[2] = target: T1, ALK-1/BMPR-2 receptor pair of the …; experiment: cell-based or functional assay; remark: listed apart in the source

T1 sequence (P37023 22-503, chain 1 of 2): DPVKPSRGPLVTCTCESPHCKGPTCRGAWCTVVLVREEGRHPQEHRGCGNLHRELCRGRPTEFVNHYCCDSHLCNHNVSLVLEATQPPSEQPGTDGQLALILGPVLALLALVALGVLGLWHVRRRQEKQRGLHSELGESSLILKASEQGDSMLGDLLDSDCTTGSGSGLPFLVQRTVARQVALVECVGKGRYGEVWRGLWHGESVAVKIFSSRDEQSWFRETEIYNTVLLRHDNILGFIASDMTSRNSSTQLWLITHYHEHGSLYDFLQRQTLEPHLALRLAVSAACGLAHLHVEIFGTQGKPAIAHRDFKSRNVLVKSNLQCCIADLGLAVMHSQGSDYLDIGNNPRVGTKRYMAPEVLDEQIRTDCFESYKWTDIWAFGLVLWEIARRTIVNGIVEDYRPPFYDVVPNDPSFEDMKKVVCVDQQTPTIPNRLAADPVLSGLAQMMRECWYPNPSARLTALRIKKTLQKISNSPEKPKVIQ
T1 sequence (Q13873 27-1038, chain 2 of 2): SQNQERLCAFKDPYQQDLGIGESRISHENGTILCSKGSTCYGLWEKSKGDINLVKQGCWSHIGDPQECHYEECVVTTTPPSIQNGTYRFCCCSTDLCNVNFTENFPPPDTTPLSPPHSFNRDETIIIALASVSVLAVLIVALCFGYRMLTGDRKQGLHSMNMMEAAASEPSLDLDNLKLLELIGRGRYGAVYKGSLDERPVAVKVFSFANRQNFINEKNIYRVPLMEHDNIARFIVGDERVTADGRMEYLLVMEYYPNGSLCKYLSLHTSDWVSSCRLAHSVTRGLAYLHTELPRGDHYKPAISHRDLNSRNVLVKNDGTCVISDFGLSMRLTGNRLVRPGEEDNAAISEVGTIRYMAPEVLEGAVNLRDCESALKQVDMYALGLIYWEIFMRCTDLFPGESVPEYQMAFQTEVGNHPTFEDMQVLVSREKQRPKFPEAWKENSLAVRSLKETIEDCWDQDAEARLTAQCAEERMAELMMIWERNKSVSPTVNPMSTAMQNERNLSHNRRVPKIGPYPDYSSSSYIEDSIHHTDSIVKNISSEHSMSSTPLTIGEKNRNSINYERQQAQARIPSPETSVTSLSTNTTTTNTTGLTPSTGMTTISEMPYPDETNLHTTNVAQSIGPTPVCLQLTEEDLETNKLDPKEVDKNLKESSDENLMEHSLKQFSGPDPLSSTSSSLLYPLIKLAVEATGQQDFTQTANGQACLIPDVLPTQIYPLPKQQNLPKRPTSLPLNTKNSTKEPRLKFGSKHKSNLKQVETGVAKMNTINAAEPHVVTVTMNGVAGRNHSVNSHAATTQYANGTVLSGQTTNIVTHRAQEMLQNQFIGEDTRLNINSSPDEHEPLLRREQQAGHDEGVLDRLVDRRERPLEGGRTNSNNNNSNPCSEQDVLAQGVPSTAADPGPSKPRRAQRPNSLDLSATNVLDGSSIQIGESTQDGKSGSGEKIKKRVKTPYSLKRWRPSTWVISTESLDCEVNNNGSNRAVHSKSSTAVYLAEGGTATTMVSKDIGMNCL

Row | Binder | % Emax BMP9 [1] [%] | Emax (RLU) [1] [RLU] | % Emax BMP9 [2] [%] | EC50 [2] [nM] | Emax (RLU) [2] [RLU]
1 | B1 | 20 | 552000 |  |  | 
2 | B2 | 14 | 383000 |  |  | 
3 | B3 | 26 | 715000 |  |  | 
4 | B4 |  |  | 35 | 0.1 | 929000
